B1: Integrator complex subunit 12, residues 155 to 213; numbered along this chain, Q96CB8 (parent)
chain: AMEMGLACVVCRQMMVASGNQLVECQECHNLYHRDCHKPQVTDKEANDPRLVWYCARCT

± gives the uncertainty stated by the source.

The variants in this data set derive from B1. As to the kind of experiment: abundance fitness (aPCA) (normalised: wild type 0, dead -1); higher = more abundant; growth selection in yeast, the domain comes from the species named. To be noted: Homo sapiens.
On to AMEMGLACVVCRQMMVASGNQLVECQECHNLYWRDCHKPQVTDKEANDPRLVWYCARCT, for which the abundance fitness was -1.21 ± 0.14.
As for AMEMGLACVVCRQMMVASGNQLVECQECHNLYDRDCHKPQVTDKEANDPRLVWYCARCT, the abundance fitness was -0.547 ± 0.039.
As for AMEMGLACVVCRQMMVASGNQLVECQECHNLYRRDCHKPQVTDKEANDPRLVWYCARCT, the figure is -0.638 ± 0.043; as for AMEMGLACVVCRQMMVASGNQLVECQECHNLYIRDCHKPQVTDKEANDPRLVWYCARCT, -0.873 ± 0.047.
As to AMEMGLACVVCRQMMVASGNQLVECQECHNLYERDCHKPQVTDKEANDPRLVWYCARCT, the abundance fitness is -0.483 ± 0.059.
As for AMEMGLACVVCRQMMVASGNQLVECQECHNLYSRDCHKPQVTDKEANDPRLVWYCARCT, the figure is -0.721 ± 0.036; as for AMEMGLACVVCRQMMVASGNQLVECQECHNLYARDCHKPQVTDKEANDPRLVWYCARCT, -0.609 ± 0.039.
Take AMEMGLACVVCRQMMVASGNQLVECQECHNLYPRDCHKPQVTDKEANDPRLVWYCARCT: the abundance fitness is -0.72 ± 0.051.
As to AMEMGLACVVCRQMMVASGNQLVECQECHNLYTRDCHKPQVTDKEANDPRLVWYCARCT, the abundance fitness was -0.85 ± 0.057.
Next, AMEMGLACVVCRQMMVASGNQLVECQECHNLYQRDCHKPQVTDKEANDPRLVWYCARCT: -0.769 ± 0.084.
In the case of AMEMGLACVVCRQMMVASGNQLVECQECHNLYHKDCHKPQVTDKEANDPRLVWYCARCT, the abundance fitness was 0.229 ± 0.068.
As for AMEMGLACVVCRQMMVASGNQLVECQECHNLYHMDCHKPQVTDKEANDPRLVWYCARCT, the figure is 0.005 ± 0.057.
Next, AMEMGLACVVCRQMMVASGNQLVECQECHNLYHWDCHKPQVTDKEANDPRLVWYCARCT: 0.143 ± 0.1.
As for AMEMGLACVVCRQMMVASGNQLVECQECHNLYHSDCHKPQVTDKEANDPRLVWYCARCT, the figure is 0.009 ± 0.052; as for AMEMGLACVVCRQMMVASGNQLVECQECHNLYHCDCHKPQVTDKEANDPRLVWYCARCT, -0.17 ± 0.087; as for AMEMGLACVVCRQMMVASGNQLVECQECHNLYHPDCHKPQVTDKEANDPRLVWYCARCT, 0.067 ± 0.08.
On to AMEMGLACVVCRQMMVASGNQLVECQECHNLYHQDCHKPQVTDKEANDPRLVWYCARCT, for which the abundance fitness stood at 0.082 ± 0.066.
Next, AMEMGLACVVCRQMMVASGNQLVECQECHNLYHADCHKPQVTDKEANDPRLVWYCARCT: -0.054 ± 0.062.
As for AMEMGLACVVCRQMMVASGNQLVECQECHNLYHLDCHKPQVTDKEANDPRLVWYCARCT, the figure is 0.037 ± 0.045.
Next, AMEMGLACVVCRQMMVASGNQLVECQECHNLYHTDCHKPQVTDKEANDPRLVWYCARCT: 0.005 ± 0.064; AMEMGLACVVCRQMMVASGNQLVECQECHNLYHEDCHKPQVTDKEANDPRLVWYCARCT: -0.016 ± 0.12; AMEMGLACVVCRQMMVASGNQLVECQECHNLYHHDCHKPQVTDKEANDPRLVWYCARCT: -0.083 ± 0.067.
Consider AMEMGLACVVCRQMMVASGNQLVECQECHNLYHFDCHKPQVTDKEANDPRLVWYCARCT, for which the abundance fitness worked out at 0.016 ± 0.076.
Next, AMEMGLACVVCRQMMVASGNQLVECQECHNLYHGDCHKPQVTDKEANDPRLVWYCARCT: 0.066 ± 0.086; AMEMGLACVVCRQMMVASGNQLVECQECHNLYHYDCHKPQVTDKEANDPRLVWYCARCT: 0.058 ± 0.073; AMEMGLACVVCRQMMVASGNQLVECQECHNLYHIDCHKPQVTDKEANDPRLVWYCARCT: -0.019 ± 0.055.
As for AMEMGLACVVCRQMMVASGNQLVECQECHNLYHVDCHKPQVTDKEANDPRLVWYCARCT, the figure is -0.018 ± 0.051; as for AMEMGLACVVCRQMMVASGNQLVECQECHNLYHRTCHKPQVTDKEANDPRLVWYCARCT, 0.023 ± 0.038; as for AMEMGLACVVCRQMMVASGNQLVECQECHNLYHRPCHKPQVTDKEANDPRLVWYCARCT, -0.215 ± 0.044.
With AMEMGLACVVCRQMMVASGNQLVECQECHNLYHRVCHKPQVTDKEANDPRLVWYCARCT, the abundance fitness is -0.083 ± 0.032.
With AMEMGLACVVCRQMMVASGNQLVECQECHNLYHRWCHKPQVTDKEANDPRLVWYCARCT, the abundance fitness is -0.089 ± 0.044.
As for AMEMGLACVVCRQMMVASGNQLVECQECHNLYHRECHKPQVTDKEANDPRLVWYCARCT, the figure is 0.107 ± 0.051; as for AMEMGLACVVCRQMMVASGNQLVECQECHNLYHRLCHKPQVTDKEANDPRLVWYCARCT, 0.06 ± 0.032; as for AMEMGLACVVCRQMMVASGNQLVECQECHNLYHRICHKPQVTDKEANDPRLVWYCARCT, -0.079 ± 0.035.
For the variant AMEMGLACVVCRQMMVASGNQLVECQECHNLYHRQCHKPQVTDKEANDPRLVWYCARCT, the abundance fitness was determined as 0.094 ± 0.054.
Next, AMEMGLACVVCRQMMVASGNQLVECQECHNLYHRYCHKPQVTDKEANDPRLVWYCARCT: -0.074 ± 0.034; AMEMGLACVVCRQMMVASGNQLVECQECHNLYHRSCHKPQVTDKEANDPRLVWYCARCT: -0.034 ± 0.031; AMEMGLACVVCRQMMVASGNQLVECQECHNLYHRMCHKPQVTDKEANDPRLVWYCARCT: 0.042 ± 0.05.
As for AMEMGLACVVCRQMMVASGNQLVECQECHNLYHRNCHKPQVTDKEANDPRLVWYCARCT, the figure is -0.052 ± 0.035; as for AMEMGLACVVCRQMMVASGNQLVECQECHNLYHRGCHKPQVTDKEANDPRLVWYCARCT, 0.013 ± 0.033; as for AMEMGLACVVCRQMMVASGNQLVECQECHNLYHRACHKPQVTDKEANDPRLVWYCARCT, 0.054 ± 0.036.
Next, AMEMGLACVVCRQMMVASGNQLVECQECHNLYHRCCHKPQVTDKEANDPRLVWYCARCT: -0.045 ± 0.033; AMEMGLACVVCRQMMVASGNQLVECQECHNLYHRRCHKPQVTDKEANDPRLVWYCARCT: -0.029 ± 0.034; AMEMGLACVVCRQMMVASGNQLVECQECHNLYHRHCHKPQVTDKEANDPRLVWYCARCT: 0.071 ± 0.036.
With AMEMGLACVVCRQMMVASGNQLVECQECHNLYHRKCHKPQVTDKEANDPRLVWYCARCT, the abundance fitness is -0.087 ± 0.057.

Source of the values: the Human Domainome abundance scans (Beltran et al. 2025).
